B1: Rho-related GTP-binding protein RhoD (Homo sapiens), O00212 (parent)
chain: MTAAQAAGEEAPPGVRSVKVVLVGDGGCGKTSLLMVFADGAFPESYTPTVFERYMVNLQVKGKPVHLHIWDTAGQDDYDRLRPLFYPDASVLLLCFDVTSPNSFDNIFNRWYPEVNHFCKKVPIIVVGCKTDLRKDKSLVNKLRRNGLEPVTYHRGQEMARSVGAVAYLECSARLHDNVHAVFQEAAEVALSSRGRNFWRRITQGFCVVT

Variants of B1 are the subject of this experiment. The conditions noted are these: with plxb1_human PLXNB1, O43157.
plxb1_human PLXNB1, O43157, sequence (O43157 whole entry): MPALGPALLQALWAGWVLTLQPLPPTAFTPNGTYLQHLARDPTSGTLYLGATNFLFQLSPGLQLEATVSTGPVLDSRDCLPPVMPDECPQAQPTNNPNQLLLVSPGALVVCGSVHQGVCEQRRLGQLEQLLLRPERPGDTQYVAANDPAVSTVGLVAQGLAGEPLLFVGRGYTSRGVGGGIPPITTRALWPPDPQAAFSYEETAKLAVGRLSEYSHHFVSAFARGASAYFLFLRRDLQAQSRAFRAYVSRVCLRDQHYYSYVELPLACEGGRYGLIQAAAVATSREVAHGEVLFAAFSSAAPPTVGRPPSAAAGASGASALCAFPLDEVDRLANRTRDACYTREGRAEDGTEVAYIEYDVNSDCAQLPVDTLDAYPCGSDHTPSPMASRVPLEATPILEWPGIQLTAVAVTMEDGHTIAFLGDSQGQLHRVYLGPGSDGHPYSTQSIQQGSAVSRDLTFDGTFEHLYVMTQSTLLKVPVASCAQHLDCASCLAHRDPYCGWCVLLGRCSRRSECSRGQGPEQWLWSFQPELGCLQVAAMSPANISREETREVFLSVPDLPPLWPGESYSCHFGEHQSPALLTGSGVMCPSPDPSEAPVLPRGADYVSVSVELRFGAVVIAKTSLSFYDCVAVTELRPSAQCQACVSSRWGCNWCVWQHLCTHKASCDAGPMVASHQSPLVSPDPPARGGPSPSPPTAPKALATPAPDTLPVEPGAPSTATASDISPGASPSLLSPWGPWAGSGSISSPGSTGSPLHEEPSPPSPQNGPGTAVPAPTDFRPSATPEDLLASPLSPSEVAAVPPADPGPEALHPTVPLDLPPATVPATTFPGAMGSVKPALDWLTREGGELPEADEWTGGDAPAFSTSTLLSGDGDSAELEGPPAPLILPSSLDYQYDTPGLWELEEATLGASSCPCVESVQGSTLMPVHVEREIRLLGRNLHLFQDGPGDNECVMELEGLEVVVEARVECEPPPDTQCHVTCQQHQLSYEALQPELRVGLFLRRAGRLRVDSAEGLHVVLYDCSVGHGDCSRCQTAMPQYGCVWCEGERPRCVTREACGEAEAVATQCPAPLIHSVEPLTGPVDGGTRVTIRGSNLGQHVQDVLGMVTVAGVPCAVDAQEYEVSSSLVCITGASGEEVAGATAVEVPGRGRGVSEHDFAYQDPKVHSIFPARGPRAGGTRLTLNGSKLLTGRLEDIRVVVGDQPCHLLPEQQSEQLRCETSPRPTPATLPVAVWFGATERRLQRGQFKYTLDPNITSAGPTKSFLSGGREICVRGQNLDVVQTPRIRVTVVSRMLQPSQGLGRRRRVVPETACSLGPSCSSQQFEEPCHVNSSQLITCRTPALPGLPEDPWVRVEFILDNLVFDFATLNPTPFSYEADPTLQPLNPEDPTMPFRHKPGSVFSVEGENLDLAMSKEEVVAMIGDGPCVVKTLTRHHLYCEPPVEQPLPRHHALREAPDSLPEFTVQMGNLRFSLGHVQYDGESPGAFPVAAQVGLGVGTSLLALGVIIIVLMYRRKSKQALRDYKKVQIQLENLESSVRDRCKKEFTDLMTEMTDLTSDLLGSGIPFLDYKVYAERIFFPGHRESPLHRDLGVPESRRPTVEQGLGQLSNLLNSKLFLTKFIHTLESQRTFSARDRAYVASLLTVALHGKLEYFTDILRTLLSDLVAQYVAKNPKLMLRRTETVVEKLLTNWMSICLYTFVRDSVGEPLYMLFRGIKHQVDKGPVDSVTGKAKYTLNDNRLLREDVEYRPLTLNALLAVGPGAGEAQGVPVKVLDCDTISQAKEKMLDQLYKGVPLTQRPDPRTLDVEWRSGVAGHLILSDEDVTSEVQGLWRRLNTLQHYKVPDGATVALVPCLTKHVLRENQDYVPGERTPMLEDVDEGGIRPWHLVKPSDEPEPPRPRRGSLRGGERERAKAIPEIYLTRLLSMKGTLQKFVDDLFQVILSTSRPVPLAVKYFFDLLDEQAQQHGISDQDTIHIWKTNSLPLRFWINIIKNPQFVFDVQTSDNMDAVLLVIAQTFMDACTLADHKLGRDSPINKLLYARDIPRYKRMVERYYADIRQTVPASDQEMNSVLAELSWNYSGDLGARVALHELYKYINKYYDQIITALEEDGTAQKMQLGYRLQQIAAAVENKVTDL
As to T31K, the “effect of a mutation on the interaction” value is given as “disrupting interaction”.

These data come from IntAct's records for PubMed 22404908.
